Measured values taken from the RNAGym collection of RNA variant scans (doi:10.1073/pnas.2313332121).

B1: TPR t1 (parent)
chain: GACCAAUCUGCCCUCAGAGCUCGAGAACAUCUUCGGAUGCAGAGGAGGCAGGCUUCGGUGGCGCGAUAGCGCCAACGUCCUCAACCUCCAAUGCAUCCCACCACAUGAUGAUGCCUGAAGAGCCUUGGUUUUUUG

Variants of: B1
Assay: polymerase ribozyme fitness, log enrichment relative to wild type (log ratio); higher = more active; in vitro selection for triplet polymerase activity
Outline: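 The heterodimeric triplet polymerase ribozyme's subunits were each mutagenized into PCR-built libraries and transcribed. Every library was selected once, in triplicate, by annealing with a biotinylated primer, the partner subunit and triplets, incubating frozen at −7 °C, gel-excising extended constructs, capturing on streptavidin beads and running RT-PCR. Input and output libraries were Illumina-sequenced, with genotypes kept only at ≥10 input reads and ≥1 read per output. Fitness, from inverse-variance-weighted replicate averages, is the base-2 logarithm of genotype enrichment over wild-type enrichment.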

| Variant | polymerase ribozyme fitness (log ratio) |
| --- | --- |
| GACCAAUCUGCACUCAGAGCUCGAGAACAUCUUCGGAUGCAGAGGAGCCAGGCCUCGGUGGCGCGAUAGCGCCAACGUCCUCCACCUACAAUGCAUCCCACCACAUGAUGAUGCCUGAAGAGCCUUGGUUUUUUG | -2.86 |
| GACCAAUCUGCACUCAGAGCUCGAGAACAUCUUCGGAUGCAGAGGAGGCAGGCUUCGGUGGCGCGAUAGCGUCAACGUCCUCAACCUCCAAUGCAUCCCACCACAUGAUGAUGCCUGAAGAGCCUUGGUUUUUUG | -0.97 |
| GACCAAUCUGCACUCAGAGCUCGAGAACAUCUUCGGAUGCAGAGGAGGCAGGCUUCGGUGGCGCGAUAGCGGCAACGUCCUCAACCUCCAAUGCAUCCCACCACAUGAUGAUGCCUGAAGAGCCUUGGUUUUUUG | -0.22 |
| GACCAAUCUGCACUCAGAGCUCGAGAACAUCUUCGGAUGCAGAGGAGGCAGGCUUCGGUGGCGCGAUAGCGCCAACGUCCUCAACCUCCAAUGCAUCCGACCACAUGAUUAUGCCUGAAGAGCCUUGGUUUUUUG | -6.29 |
| GACCAAUCUGCACUCAGAGCUCGAGAACAUCUUCGGAUGCAGAGGAGGCAGGCUUCGGUGGAGCGAUAGCGCCAACAUCCUCAACCUCCAAUGCAUCCCACCACAUGAUGAUGCCUGAAGAGCCUUGGUUUUUUG | -3.27 |
| GACCAAUCUGCACUCAGAGCUCGAGAACAUCUUCGGAUGCAGAGGAGCCAGGCUUCGGUGGCGCGAUAGCGCCAACGUCCUCAACCUCCAAUGCAUCCCACCACAUGAUGAUGCCGGAAGAGCCUUGGUUUUUUG | -5.7 |
| GACCAAUCUGCACUCAGAACUCGAGAACAUCUUCGGAUGCAGAGGCGGCAGGCUUCGGUGGCGCGAUAGCGCUAACGUCCUCAACCUCCAAUGCAUCCCACCACAUGAUGAUGCCUCAAGAGCCUUGGUUUUUUG | -5.99 |
| GACCAAUCUGCACUCAGAGCUCGAGAACAUCUUCGGAUGCAGAGGAGGCAGGCUUCGGUGGCGCGAUAGCGCCAACGUCCUCAACCUGCAAUGCAUCCCACCACAUGAUGAUGCCUGAAGAGCCUUGGUUUUUUG | -1.56 |
| GACCAAUCUGCACUCAGAGCUCAAGAACAUCUUCGGAUGCAGAGGAGGCAGGCUUCGGUGGCGCGAUAGCGCCAACGUCCUGAACCUCCAAUGCAUCCCACCACAUGAUGAUGCCUGAAGAGCCUUGGUUUUUUG | -7.42 |
| GACCAAUCUGCACUCAGAGCUCGAGAACAUCUUCGGAUGCAGAGGAUGCAGGCUUCGGUAGCGCGAUAGCGCCAACGACCUCAACCUCCAAUGCAUCCCACCACAUGAUGAUGCCUGAAGAGCCUUGGUUUUUUG | -2.01 |
| GACCAAUCUGCACUCAGAGCUCGAGAACAUCUUCGGAUGCAGAGGAGGCAGGCUUCGGUGGCGCGAUAGCGCCAACGUCCUCAACCUCCAAUGCAUACCACCACAUGAUGAUGCCUGAAGAGCCUUGGUUAUUUG | -4.52 |
| GACCAAUCUGCACUCAGAGCUCGAGAACAUCUUCGGAUGCAGACGAGGCAGGCUUCGGUGGCGUGAUAGCGCCAACGUCCUCAACCUCCAAUGCAUCCCACCACAUGAUGAUGCCUGAAGAGCCGUGGUUUUUUG | -2.52 |
| GACCAAUCUGCACUCAGAGCUCGAGAACAUCUUCGGAUGCAGAGGAAGCAGGCUUCGGUGGCGCGAUAGCGCCAACGUCCUCAACCUCCAAUGCAUCCCACGACAUGAUGCUGCCUGCAGAGCCUUGGCUUUUUG | -7.59 |
| GACCAAUCUGCACUCAGAGCUCGAGAACAUCUUCGGAUGCAGAGGAGGCAGGCUUCGGUGGCGCGAUAGCGCCAACGUCCUCAACCUCCAAUGCAUCCCACCACAUGAUGAUGCAUGAAGAGCCUUGGUUUUUUG | -0.819 |
| GACCAAUCUGCACUCAGAGCUCGAGAACAUCUUCGGAUGCAGAGGAGGCAGGCUUCGGUGGCGCGAUAGCGCCAACGUCCUCAACCUCCAAUGCAUCCCACCACAUGAUGAUGCCUGAAGAGGCUUGGUUUUUUG | 1.19 |
| GACCAAUCUGCACUCAGAGCUCGAGAACAUCUUCGGAUGCAGAGGAGGCAGGCUUCGGUGGCGCGAUAGCGCCAACGUCCUCAAUCUCCAAUGCAUCCCACCACAUGAUGAUGCCUGAAGAGCCUUGGUUUUUUG | -1.04 |
| GACCAAUCUGCACUCAGAACUCGAGAACAUCUUCGGAUGCAGAGGAGGCAGGCUUCGGUUGCGCGAUAGCGCCAACGUCCUCAACCUCCAAUGCAUCCCACCACAUGAUGAUGCCUGAAGAGCCUUGGUUUUUUG | -2.57 |
| GACCAAUCUGCACUCAGAGCUCGAGAACAUCUUCGGAUGCAGAGGAGGCAGGCUUCGGUGGCGCGAUAGCGUCAACGUCCUCAACCUCCAAUGCAUCACACCACAUGAUGAUGCCUGAAGAGCCUUGGUUUUUUG | -6.65 |
| GACCAAUCUGCACUCAGAGCUCGAGAACAUCUUCGGAUGCAGAGGAAGCAGGCUUCGGUGGCGCGAUAGUGCCAACGUCCUCAACCUUCAAUGCAUCCCACCACAAGAUGAUGCCUGAAGAGCCUUGGUUUUUUG | -2.59 |
| GACCAAUCUGCACUCAGAGCUCGAGAACAUCUUCGGAUGCAGAGGAGGCAGGCUUCGGUGGCGCGAUAGCGCCAACGUCCUCAACCUCCAAUGCAUACCACCACAUGAUGAUGCCUGAAGAGCCUUGGUUUUUUG | -4.79 |
| GACCAAUCUGCACUCAGAGCUCGAUACCAUCUUCGGCAGCAGAGGAGGCAGGCUUCGGUGGCGCGAUAGGGCCAACGUCCUUAACCUCCAAUGCAUCCCACCACAUGAUGAUGCUUGAAGAGCCUUGGUUUUUUG | -6.08 |

| Variant | polymerase ribozyme fitness (log ratio) |
| --- | --- |
| GACCAAUCUGCACUCAGAGCUCGAGAACAUCUUCGGAUGCAGAGGAGGCAGGCUUCGGUGGCGCGAUAGCGCCAACGUCUUCAACCUCCAAUGCAUCCCACCACAUGAUGAUGCCUGAAUAGCCUUGGUUUAUUG | 1.64 |
| GACCAAUCUGCACUCAGAGCUCGAGAACAUCUUCGGAUGCAGAGGAGGCAGGCUUCGGUGGCGCGAUAGCGCCAACGUCCUCAACCUCCAAUGCAUCCUACCACAUGAUGAUGCCUGAAGAGUCUUGGGUUUUUG | -3.57 |
| GACCAAUCUGCACUCAGAAAUCGAGAACAUCUUCGGAUGCAGAGGAGGCAGGUUUCGGUGGCGCGAUAGCGCCAACGUCCUCAACCUCAAAUGCAUCCCACCACAUGAUGAUGCCUGAAGAGCCUUGGUUUUUUG | -3.61 |
| GACCAAUCUGCACUCAGAGCUCGAGAACAUCUUCGGAUGCAGAGGAGGCAGGCUUCGGUGGCGUGAUAGCGCCAACGUCCUCAACCUCCAAUGCAUCCCACCACAUGAUGAUGCUUGAAAAGACUUGGUUUUUUG | -1.16 |
| GACCAAUCUGCACUCAGAGCUCGAGAACAUCUUCUGAUGUAGAGAAGGCAGGGUUCGGUGGCCCGAUAGCGCCAACGUCCUCAACCUCCAAUGCAUCCCACCACAUGAUGAUGCCUCAAGAGCCUUUGUUUUUUG | -6.85 |
| GACCAAUCUGCACUCAGAGCUCGAGAACAUCUUCGGAUGCAGAGGAGGCAGGCUUCGGUGGCGUGAUAGCGCCAACGUCCUCAACCUCCAAUGCAUCCCACCACAUGAUGAUGCCUGAAGAGCCUUGGUUUUUUG | -0.93 |
| GACCAAUCUGCACUCAGAGCUCGAGAACAUCUUCAGAUGCAGAGGAGGAAGGCUUCGGUGGCGCGAUAGCGCCAACGUCCUCAACCUCCAAUGCAUCCCACCACAUGAUGAUGCCUGAAGAGCCUUGGUUUUUUG | -5.9 |
| GACCAAUCUGCACUCAGAGCUCGAGAACAUCUUCGGAUUCAGAGGAGGCUGGCUUCGGUGGCGCGAUAGCGCCAACGUCCUCAACCUCCAAUGCAUCCCACCACAUGAUGAUGCCUGAAGAGCCUUGGUUUUAUG | -1.46 |
| GACCAAUCUGCACUCAGAGCUCGAGAACAUCUUCGGAUGCAGAGGAGGCAGGCUUCGGUGGCGUGAUAGCGCCAACGUCCACAACCUCCAAUGCAUCCCACCACAUGAUGAUGCCUGAAGAGCCUUGGUUUUUUG | -1.67 |
| GACCAAUCUGCACUCAGAGCUCGAGAACAUCUUCGGAUGCAGAGGAGUCAGGAUUCGGUGGCGCGAUAGCGCCAACGUCCUCAACCUCCAAUGCAUCCCAUCACAUGAUGAUCCCUGAAAAGCCUUGGUUUUUUG | -3.38 |
| GACCAAUCUGCACUCAGAGCUCGAGAACAUCUUCGGAUGCAGAGGAGGCAGGCUUCGGUGGCGCGAUAGCGCCAACGUCCUCAACCUCCAAUGCAUCUCACCACAUGAUCAUGCCUGAAGAGCCUUGGUUAUUUG | -6.2 |
| GACCAAUCUGCACUCAGAGCUCGAGAACAUCUUCGGAUGCAGAGGAGGCAGGCUUCGGUGGGGCGAUAGCGGCAACGUCCUCAACCUCCAAUGCAUCCCACCACAUGAUGAUGCCUGAAGAGCCUUGGUUUUUUG | -6.48 |
| GACCAAUCUGCACUCAGAGCUCGAGAACAUCUUCGGAUUCAGAGGAGGCAGGCUUCGGUGGCGCGAUAGCGCCAACGUCCUCAACCUCCAAUGCAUCCCACCACAUGAUGAUGCCUGAAGAGCCUUGGUUUUUUG | -1.1 |
| GACCAAUCUGCACUCAGAGCUCGAGAACAUCUUCGGAUGCAGAGGAGGCAGGCUUCGGUGGUGCGAUAGCGCCAACGUCCUCAACCUCCAAUGCAUCCCACCACAUGAUGAUGCCUGAAGAGCCUUGGUUUUUUG | -0.927 |
| GACCAAUCUGCACUCAGAGCUCGAGAACAUCUUCGGAUGCAGAGGAGGCAGGCUUCGGUGGCGCGAUAGCGCCAACGUCCUCAACCUGAAAUGCAUCCCACCACAUGAUGAUGCCCGAAGAGCAUUAGUUUUUUG | -3.44 |
| GACCAAUCUGCACUCAGAGCUCGAGAACAUCUUCGGAUGCAGAGGAGUCAGGCUUCGGUGGCGCGAUAGCACCAACGUCCUCAACCUCCAAUGCAUCCCACCACAUGAUGAUGCCUGAAGAGCCUUGGUUUUUUG | -2.04 |
| GACCAAUCUGCACUCAGAGCUCGAGAACAUCUUCGGAUGCAGAGGAGGCAGGCUUCGGUGGCGCGAUAGCGCCAACGUCCUCAACCUCUAAUGCAUCCCACCACAUGAUGAUGCCUGAAGAGCCUUGGUUUUUUG | -1.16 |
| GACCAAUCUGCACUCAGAGCUCGAGAACAUCUUCGGAUGCAGAGGAGGCAAGCUUCGGUGGCGCGAUAGCGCCAACGUCCUCAACCUCCAGUGCAUCCCACCACAUGAUGAUGCCUGAGAAGCCUUGGUUUUUUG | -2.39 |
| GACCAAUCUGCACUCAGACCUCGAGAACAUCUUCGGAUGCAGAGGAGGCAGGCUUCGGUGGCGCGAUAGCGCCAACGUCCUCAACCUCCAUUGCAUCCCACCACAUGAUGAUGCCUGAAGAGCCUGGGUUUUUUG | -5.51 |
| GACCAAUCUGCACUCAGAGCUCGAGAACAUCUUCGGAUGCAGAGGACGCAGGCUUAGGUGGCGCGAUAGUGCCAACGUCCUCUAUCUCCAAUGCAUCCCACCACAUGAUGAUGCCUGAACAGCCUUGGUUUUUUG | -4.03 |
| GACCAAUCUGCACUCAGACCUCGAGAACAUCUUCGGAUGCAGAGGAGGCAGGCUUCGAUGGCGCGAUAGCGCCAACGUCCUGAACCUCCAAUGCAUCCCACCACAUGAUGAUGCCUGAAGAGCCUUGGUUUUUUG | -3.7 |
